{"source": "patent EP4580670A2", "biological_target": "CH848 day 949 SOSIP Env trimer (soluble SOSIP trimer derived from a virus isolated from the CH848 individual at day 949 post infection) (HIV-1)", "experiment": "method not stated; affinities shown in Figure 1B; reference DH270 UCA"}
{"substance": "DH270.I5 Fab", "values": [{"measurement": "fold improvement of Env binding affinity relative to the UCA", "value": 8, "unit": "fold"}]}
